In US20110104713A1, “PRODUCTS AND PROCESSES FOR MODULATING PEPTIDE-PEPTIDE BINDING DOMAIN INTERACTIONS” (priority 2002, published 2011):
Non-standard residues stand in square brackets, D forms with d. No end group written: not given here. pT = C[C@@H](OP(=O)(O)O)[C@H](N)C(=O)O

T1: BRCTtide-7pS, GAAYDI-pS-… (Artificial Sequence)
T1 sequence (peptide, phosphoserine (pS) at position 7): GAAYDISQVFPFAKKK

T2: BRCTtide-7pT, GAAYDI-pT-… (Artificial Sequence)
T2 sequence (peptide, phosphothreonine (pT) at position 7): GAAYDITQVFPFAKKK


How the values were obtained:
[1] = biological target: T1, BRCTtide-7pS, GAAYDI-pS-… (Artificial Sequence); assay: isothermal titration calorimetry, peptide injected into GST-PTIP BRCT domains
[2] = biological target: T2, BRCTtide-7pT, GAAYDI-pT-… (Artificial Sequence); assay: as above
[3] = biological target: degenerate peptide library GAXXXB(pS/pT)QJXXXAKKK (SEQ ID NO: 62); assay: GST-(BRCT)2 on glutathione beads, soluble degenerate library, Edman sequencing of bound peptides
[4] = biological target: degenerate peptide library GAXXXXpSXXFXXAYKKK (SEQ ID NO: 59); assay: as above
[5] = biological target: degenerate peptide library MAXXXXpTXXXXAKKK (SEQ ID NO: 47); assay: as above
[6] = biological target: degenerate peptide library Met-Ala-X-X-X-X-pSer-X-X-X-X-X-Ala-Lys-Lys-Lys (SEQ ID NO: 58); assay: as above
[7] = biological target: T1, BRCTtide-7pS, GAAYDI-pS-… (Artificial Sequence); assay: isothermal titration calorimetry, peptide injected into GST-BRCA1 BRCT domains
[8] = biological target: degenerate peptide library MAXXXXSpTXXXXAKKK (SEQ ID NO: 48); assay: GST-PBD on glutathione beads, oriented peptide library screening
[9] = biological target: degenerate peptide library MAXXXXpTPXXXXAKKK (SEQ ID NO: 46); assay: as above
[10] = biological target: GST-Plk1 (full-length), prepared in SF9 cells (human)

| Binder | selectivity ratio, Phe at (pSer/pThr)+3 [3] | selectivity ratio, Phe at pSer+3 [6] | selectivity ratio, Pro at pThr+1 [8] | selectivity ratio, Ser at pThr-1 [9] | other results |
| --- | --- | --- | --- | --- | --- |
| GST-PTIP tandem BRCT domains (residues 550-757) (protein) TPELTPFVLFTGFEPVQVQQYIKKLYILGGEVAESAQKCTHLIASKVTRTVKFLTAISVVKHIVTPEWLEECFRCQKFIDEQNYILRDAEAEVLFSFSLEESLKRAHVSPLFKAKYFYITPGICPSLSTMKAIVECAGGKVLSKQPSFRKLMEHKQNSSLSEIILISCENDLHLCREYFARGIDVHNAEFVLTGVLTQTLDYESYKFN | 7 | 2.3 |  |  | Kd [1]: 280 nM; Kd [2]: 14300 nM; selectivity ratio, Ile at pSer+5 [4]: 1.9; selectivity ratio, Ile at pThr-1 [5]: 2.1 |
| GST-BRCA1 tandem BRCT domains (residues 1634-1863) (protein) REKPELTASTERVNKRMSMVVSGLTPEEFMLVYKFARKHHITLTNLITEETTHVVMKTDAEFVCERTLKYFLGIAGGKWVVSYFWVTQSIKERKMLNEHDFEVRGDVVNGRNHQGPKRARESQDRKIFRGLEICCYGPFTNMPTDQLEWMVQLCGASVVKELSSFTLGTGVHPIVVVQPDAWTEDNGFHAIGQMCEAPVVTREWVLDSVALYQCQELDTYLIPQIPHSHY | 7.5 | 2.4 |  |  | Kd [7]: 400 nM; selectivity ratio, Phe at pSer+1 [4]: 2.1; selectivity ratio, Phe at pThr+3 [5]: 1.9 |
| GST-Cdc5p PBD (Saccharomyces cerevisiae Cdc5p residues 357-705) (protein) EDIPEEQSLVNFKDCMEKSLLLESMSSDKIQRQKRDYISSIKSSIDKLEEYHQNRPFLPHSLSPGGTKQKYKEVVDIEAQRRLNDLAREARIRRAQQAVLRKELIATSTNVIKSEISLRILASECHLTLNGIVEAEAQYKMGGLPKSRLPKIKHPMIVTKWVDYSNKHGFSYQLSTEDIGVLFNNGTTVLRLADAEEFWYISYDDREGWVASHYLLSEKPRELSRHLEVVDFFAKYMKANLSRVSTFGREEYHKDDVFLRRYTRYKPFVMFELSDGTFQFNFKDHHKMAISDGGKLVTYISPSHESTTYPLVEVLKYGEIPGYPESNFREKLTLIKEGLKQKSTIVTVD |  |  | 1.4 | 5.3 |  |
| MAGPMQS[pT]PLNGAKK [PoloBoxtide-optimal, MAGPMQ-S-pT-P-LNGAKK] |  |  |  |  | Plk1 kinase activity towards casein (32P incorporation, SDS-PAGE/autoradiography) [10]: 2.6 fold |

The next lines start with results.

| selectivity ratio, Phe at (pSer/pThr)+3 [3] | selectivity ratio, Phe at pSer+3 [6] | selectivity ratio, Pro at pThr+1 [8] | selectivity ratio, Ser at pThr-1 [9] | Binder | other results |
| --- | --- | --- | --- | --- | --- |
|  |  | 1.6 | 3 | GST-hPlk3 PBD (human Plk3 residues 335-646) (protein) TPPNPARSLFAKVTKSLFGRKKKSKNHAQERDEVSGLVSGLMRTSVGHQDARPEAPAASGPAPVSLVETAPEDSSPRGTLASSGDGFEEGLTVATVVESALCALRNCIAFMPPAEQNPAPLAQPEPLVWVSKWVDYSNKFGFGYQLSSRRVAVLFNDGTHMALSANRKTVHYNPTSTKHFSFSVGAVPRALQPQLGILRYFASYMEQHLMKGGDLPSVEEVEVPAPPLLLQWVKTDQALLMLFSDGTVQVNFYGDHTKLILSGWEPLLVTFVARNRSACTYLASHLRQLGCSPDLRQRLRYALRLLRDRSPA |  |
|  |  | 1.7 | 7.5 | GST-hPlk2 PBD (human Plk2 residues 355-685) (protein) HLSSPAKNFFKKAAAALFGGKKDKARYIDTHNRVSKEDEDIYKLRHDLKKTSITQQPSKHRTDEELQPPTTTVARSGTPAVENKQQIGDAIRMIVRGTLGSCSSSSECLEDSTMGSVADTVARVLRGCLENMPEADCIPKEQLSTSFQWVTKWVDYSNKYGFGYQLSDHTVGVLFNNGAHMSLLPDKKTVHYYAELGQCSVFPATDAPEQFISQVTVLKYFSHYMEENLMDGGDLPSVTDIRRPRLYLLQWLKSDKALMMLFNDGTFQVNFYHDHTKIIICSQNEEYLLTYINEDRISTTFRLTTLLMSGCSSELKNRMEYALNMLLQRCN |  |
